Three molecules from article PMC2826812 (Biochemistry, 2010) can be followed below.

What is called Kd is the free concentration of one partner at which half of the binding sites on the other are occupied at equilibrium, for simple one-to-one binding.

The target in experiment [1] is rabbit skeletal muscle F-actin (rabbit) (UniProt P68135).
For experiment [2] the target is unchanged. This is another data set of the same source.
Experiment [3] addresses acto-Myo1c^1IQ (pyr.actin-Myo1c^1IQ) (Rattus norvegicus, UniProt Q63355). It counts as binding.

For “Myo1c^1IQ-G (from UniProt Q63355 1-725) (domain or fragment)”, in experiment [1], the Km for actin of the steady-state actin-activated Mg2+-ATPase, pCa 4.6 worked out at 0.28 μM. The molecule “Myo1c^SAH-G (from UniProt Q63355 1-762; D3ZJP6 805-843) (domain or fragment)” yielded an in vitro motility: speed of actin filaments over surface-held myosin in experiment [2] of 29 nm/s.

Turning to `Nc1ncnc2c1ncn2[C@@H]1O[C@H](COP(=O)(O)OP(=O)(O)O)[C@@H](O)[C@H]1O` [ADP], the dissociation constant (Kd) in experiment [3] was 1.74 µM.
